Test results published in the DeepSol protein solubility set.

Experiment: soluble on expression in E. coli; label from the status in PepcDB or PDB records

Sequence | soluble on expression in E. coli
MSSSTSSVESVEDESCSNECSASFTFDTNNNSRGNNQVNELAEETHMKLSITPTRESFSLSQLERIITIGKGTFGRVELARDKITGAHYALKVLNIRRVVDMRQTQHVHNEKRVLLQLKHPFIVKMYASEKDSNHLYMIMEFVPGGEMFSYLRASRSFSNSMARFYASEIVCALEYIHSLGIVYRDLKPENLMLSKEGHIKMADFGFAKELRDRTYTICGTPDYLAPESLARTGHNKGVDWWALGILIYEMMVGKPPFRGKTTSEIYDAIIEHKLKFPRSFNLAAKDLVKKLLEVDRTQRIGCMKNGTQDVKDHKWFEKVNWDDTLHLRVEPPIVPTLYHPGDTGNFDDYEEDTTGGPLCSQRDRDLFAEW | not soluble
MSSTQTDYRLSDDLLGPVLAILDAYIDPYLAKGLVSAGCVNKLAIEGKRLQLGLVYPYPCMTQYRDTVMALTNKLAVLDAIDEVECEIDFQPKVYSAIASIAPIANVKQVIAVASGKGGVGKSTTAVNLALALAAEGAQVGILDADIYGPSVPLMLGIPNFRPVSPDGKHMTAASAYGIAAQSIGFMLSGDEAAVWRGPMAAGALAQLLNETQWPELDYLVVDMPPGTGDIQLTLSQKVPVSGAVIVTTPQDIALADAKKGITMFQKVNIPVLGIVENMSFHLCPECGHKEHPFGTHGGSKMAERYQVPLLGALPLHINIREAMDVGAPTVVAEPDSEVAALYREIARKVGAELALKQSQKTVSISVSDDELEHHHHHH | soluble
MSSVELPQVMDDNLISRRKKIMQSIEDIRGKKAEIAQALRELGVGKPQENESVKEDMKLLLAAFDSISAQEAQYMDILKTIVGIHEQATLDIAKDFEKKIEDDAQKLKEQKEKQEEDATEEDENAEKTPEEQANSEVIAELQEALLELKQVSEAAVAASELNEKLVERLQLTKRKKSAMMEVRAKKAKDLDDVATKVRAEVMERINKMAALKKTTTKQEKELKELQKQCLQLGLQLGTDENREIDPAAEEALLDDNQRVPVIVETQEKPDLNDEEKEKRREEIRENIKKEMEKKEQVNTLIREKLASMNARRKRLQEIRKMLEKQEHEKEKLDAAISNSAVAVQNDGEGIALTPETPRPSQEDEAEAPAAAETTVVSAPVAASEDIDEEEDGEVTEKSLDDILENARANLSNLTAMRERLEHIKETGGADLNEDDLTLLERLDNVALEEDEKLTPTP | soluble
MSTAKAPTLPASIFRAYDIRGVVGDTLTAETAYWIGRAIGSESLARGEPCVAVGRDGRLSGPELVKQLIQGLVDCGCQVSDVGMVPTPVLYYAANVLEGKSGVMLTGSHNPPDYNGFKIVVAGETLANEQIQALRERIEKNDLASGVGSVEQVDILPRYFKQIRDDIAMAKPMKVVVDCGNGVAGVIAPQLIEALGCSVIPLYCEVDGNFPNHHPDPGKPENLKDLIAKVKAENADLGLAFDGDGDRVGVVTNTGTIIYPDRLLMLFAKDVVSRNPGADIIFDVKCTRRLIALISGYGGRPVMWKTGHSLIKKKMKETGALLAGEMSGHVFFKERWFGFDDGIYSAARLLEILSQDQRDSEHVFSAFPSDISTPEINITVTEDSKFAIIEALQRDAQWGEGNITTLDGVRVDYPKGWGLVRASNTTPVLVLRFEADTEEELERIKTVFRNQLKAVDSSLPVPF | soluble
MSTGKIQFAEQNGSFVLKFVGEVRLTLCSALDSTIEKIFAALNFSAIIIDLTETQSIDSTTLGLLAKLSILSRQKIGLLPTLVTTNPDITRLLQSMGFDQVFNIVDRPIPCPECLSDLPPQDQSEDVVRDKVLEAHRILMGLNESNREAFHDLVSALERH | not soluble
MSTLKIAPSILAADYANFASELARIEETDAEYVHIDIMDGQFVPNISFGADVVASMRKHSKLVFDCHLMVVDPERYVEAFAQAGADIMTIHTESTRHIHGALQKIKAAGMKAGVVINPGTPATALEPLLDLVDQVLIMTVNPGFGGQAFIPECLEKVATVAKWRDEKGLSFDIEVDGGVDNKTIRACYEAGANVFVAGSYLFKASDLVSQVQTLRTALNV | soluble
MSTLSQLKPASLWQLFEKICSIPHPSKHEQKISLWIQDWAKELGLAIKEDAVGNLFIKKPATAGMEDRKGIILQAHMDMVPQKNNDTDHDFITDPIKPYVIDSGDWVTAEGTTLGADNGVGLASALAILASDDIPHGPLEVLVTIDEEAGMTGAFGLEAGWLDGDILINTDSEQEGEVYMGCAGGIDGNATFALTLEDVPSNYQAFNLSISGLKGGHSGVDIHTGRANANKLLVRFLLSASIDFDISLTELNGGSLRNAIPREANASFVVAKDKVEALKVALADYLSTISANLGAIETDIDMLLISPEDFEQCWTKATQASILRALNACPNGVIRMSDDIEGIVETSLNLGVIHTRGSKLNAMVLIRSLHDDGRLETQRMVQSVFELAGANVVFSGAYPGWKPNTDSAIMQTVRDTYESIFNKVPAVMVIHAGLECGLFKTAYPHWDMVSIGPTIKFPHSPDEKIEIATVEQYWQLLVAVLANIPKKLEHHHHHH | soluble
MSTQYLNSNLKVFSLNSNKELAEQIAKHIGVGLGKCSVDRFSDGEVQINIEESIRGCDVFIIQSTSFPVNEHIMELLIMIDALKRASAKTINIVIPYYGYARQDRKARSREPITSKLVANLLETAGATRVITLDLHAPQIQGFFDIPIDHLMGVPILSDYFETKGLKDIVIVSPDHGGVTRARKMADRLKAPIAIIDKRRPRPNVSEVMNIIGNIEGKTAILIDDIIDTAGTITLAANALVENGASEVYACCTHPVLSGPAIERIQNSNIKELVVTNSIVLPEEKKIDKVHELSVAPLIGEAIIRVYEEESVSVLFN | not soluble
MSTRFRLSLALLTTLVLSACDDAPRFTHAEPGEALSGGSATVRKSDQNAFSMPSANLSPVRRLDFSVGNSFFRSPWVIAPSTTTARDGLGPLFNTNACQNCHIKDGRGHPPEAGDSNAVSMLVRLSIPDDPAYADLIRRNGVLPEPTYGGQLQDMSNPGVAPEGKVRVEYDALTVNFRDGTAVELRQPTLRITQLGYGPMHPETHISARIAPPMIGLGLLEAIADDAILANADPDDKNADGISGRPNWVWDDVQQKVVMGRFGWKAGQPNLNQQNVHAFSGDMGLTTSLRRVDDCTPAQTDCLVAPNGNGPDGEPEVSDNILRLVEFYTRNLGVPARRKVADPQVLAGKNLFFEAGCQQCHTPSFKTRSDAAQPELANQDIRPYSDLLLHDMGEGLADNRTEFQATGREWRTPPLWGLGLTETVSGHTQLLHDGRARNMLEAILWHGGEAQAAQRRVLAFDAEQREALLAFLNSL | not soluble
MSTRKDYLSFIAVAAHEFVHTWNVKQYRPKGIVPYDYQQENYSNLLWLVEGSTSYLQYQLLLRGNLMTTDEFFTALAKRITAHAHKPGKESQSVAQASFDAWISEGGDYGNNHSVNIYSEGFLASWLLDFDILAKTALEHHHHHH | not soluble
MSTRWYPIYQRGNPQLRVFLPNFWMKLIRPTEEQPPNVVTFSVSMEMTKYDVRNYLEKIYKLPVVDVRTRIAMGETKKDQTYGYITKKDDVKLAYVTLPREESFVFPDFFSEKAEKQAKEEKSLDESKAGFRRFLDRNKKRPGTPGWFSI | not soluble
MSTTGRIHSFESCGTVDGPGIRFIVFLQGCLMRCKYCHNRDTWDTHDGKEVTVEEIIAEAKSYRHFMNASGGGITCSGGEAMLQPEFVRDFFRAAHAEGIHTCLDTNGYIRKHTEVIDEVLDATDLVMLDIKHMKDEIHQDFIGVSNRRTLDFARYLHKIGQKTWIRYVVVPGYTDDPEAAHMLGEFIKDMDNIEKVELLPYHKLGAHKWEALGLEYPLEGVNPPSKETMDEIQSILSQYHSNVKYLEHHHHHH | not soluble
MSVELRDATVDDLSGIMEIYNDAVVNTTAIWNEVVVDLENRKDWFAARTSRGFPVIVAILDGKVAGYASYGDWRAFDGYRHTREHSVYVHKDARGHGIGKRLMQALIDHAGGNDVHVLIAAIEAENTASIRLHESLGFRVVGRFSEVGTKFGRWLDLTCMELKLG | not soluble
MSVKIDVIRVEIPEGTNVIIGQSHFIKTVEDLYETLASSSPHLKFGIAFCEASGKRLIRWDGNDEELIKLAQQTALKIGAGHTFVIYIKNGFPINVLNRIKNVEEVVRIFAATANPLQVLVAETDQGRGVIGVVDGYTPLGIETEADIKERKELLRKFGYKR | soluble
MSVLEKIDSPADLKKVSNQELEELASEIRTAVLHKVSNIGGHVGPNLGVTELTIALHKVFNSPIDKFIWDVSHQTYPHKILTGRKNGFTDGHFHDITPYTSQRESEHDFFTVGHTSTSIANALGYAKARDLTNDKGNIVAVIGDGSLSGGLAMEALNNAGDFKGNLIILVNDNQMSIAENHGGLYRNLAELRATNGQAENNFFKTFGLDYKYLENGNDIESLIHLFEEVKDIDHPIVLHIHTEKGRGYQPALENKEAFHWHMPFDLETGQSKVIDSGKSYSSVMLDYMDKKVSEGLPLVAINAAIPGIFGLKQFAAKYPDRYIDAGIAEQFTITFGGAMAAAGARPIIFHNSTFVQRAYDQFWHDLAINEEPAIVIVKGGVISGSDETHQGSSAMTWISNIPNIKYLAPTSEEEFISILDWALEQHEEPVVIQMPEHGLESRPTVLTDYSTPSYQMTKSGEKVALLALGGLYSHGEKVAKVLAENGINATLINPLFINDLDQAFLENLVENHQVIATIEDGILDGGFGQKVASFLGKYDVKVLNFGAKREFNDSVPVTELYNRYHLTPELMVADILSLLKLEHHHHHH | not soluble
MSVLIPLVTVDGRDSVLLTKRSIHLRSHRGEVCFPGGRMDPGETTTETALRETFEEIGVNAESVEIWGHLKSVIRRQADFNVTPIVGYISDERVLENLVVNSDEVQAVFTIPIDELIKKAGLTKFQSKRMKYTLPSFDSTEFKVHHNAPNEYLHSTQRVWGLSGVMLHQALTLLNPDVYKHDLIVKFF | not soluble
MSVLNPCMTCGACCAYFRVSFYWAEGDDASGRVPASLTEPVTPFLRCMAGTNQKQPHCKALIGTPGENVSCAIYENRPSTCREFSISGEGGEVNEACNRARARYGLPPLYKDMLFHTTADAATVELSRVQLPANLEHHHHHH | not soluble
MSVMTLKKQTYRVIAVINQGQELLVRAHEPETADIEIIPVTTVVQVTEQNSTGDAAVALDTVTVVGERYVDDIVATLTTLRVGMAVLLQRESGNQYDDNAISVWTLQHAKLGYIARYQNQPYATLMDQGQRLYGIVTVLDQQKQHLELMLWRTTAVPSPIEALQIRQRLAKPRTNLGAVPTHSLQTPLGTIVMMCNGHPIKYQQVPLSPWLTPADELHVTKRYLLTPDWSQVPPDSLITCQVTAKADVVQRWQNEHISAAVLTNASSFYVVGISAQTKTGLNDNLVDDAAQPAVIYRVGQVSAHMQAGFMVSWAPFGDPRVQPALKLALHFSSQPLVPYHPVTPSRTNATFTQQELAALLVSALPNYQGGQRLEPSVTTITVEKLRQTLGDQTYHALANYQRHVQLVAGSTEGVNETLLQALIHAVTYHELTTMHYYQPTVGMVDQVIYPIQLFSTTTKDEDDAQLVGCLALYNYETFEIQQVPLTAIARIAIIADPEHPQTTPETESPDWLRIFLHGWNDDFLEHHHHHH | soluble
MSVTVKRIIDNTVIVPKLPANEDPVEYPADYFRKSKEIPLYINTTKSLSDLRGYVYQGLKSGNVSIIHVNSYLYGALKDIRGKLDKDWSSFGINIGKAGDTIGIFDLVSLKALDGVLPDGVSDASRTSADDKWLPLYLLGLYRVGRTQMPEYRKKLMDGLTNQCKMINEQFEPLVPEGRDIFDVWGNDSNYTKIVAAVDMFFHMFKKHECASFRYGTIVSRFKDCAALATFGHLCKITGMSTEDVTTWILNREVADEMVQMMLPGQEIDKADSYMPYLIDFGLSSKSPYSSVKNPAFHFWGQLTALLLRSTRARNARQPDDIEYTSLTTAGLLYAYAVGSSADLAQQFCVGDNKYTPDDSTGGLTTNAPPQGRDVVEWLGWFEDQNRKPTPDMMQYAKRAVMSLQGLREKTIGKYAKSEFDK | soluble
